Biological target: clathrin purified from bovine brain, P49951
Assay: peptide array overlay assay
Conditions: chain shown with the change; for ratio to parent: n = 1, parent: est. 1.0, read off a plot; for other: relative clathrin binding (intensity divided by that of 15mer E): n = 1, parent: est. 0.15, read off a plot

Chain of clathrin purified from bovine brain, P49951 (P49951 2-1675, chain 1 of 3): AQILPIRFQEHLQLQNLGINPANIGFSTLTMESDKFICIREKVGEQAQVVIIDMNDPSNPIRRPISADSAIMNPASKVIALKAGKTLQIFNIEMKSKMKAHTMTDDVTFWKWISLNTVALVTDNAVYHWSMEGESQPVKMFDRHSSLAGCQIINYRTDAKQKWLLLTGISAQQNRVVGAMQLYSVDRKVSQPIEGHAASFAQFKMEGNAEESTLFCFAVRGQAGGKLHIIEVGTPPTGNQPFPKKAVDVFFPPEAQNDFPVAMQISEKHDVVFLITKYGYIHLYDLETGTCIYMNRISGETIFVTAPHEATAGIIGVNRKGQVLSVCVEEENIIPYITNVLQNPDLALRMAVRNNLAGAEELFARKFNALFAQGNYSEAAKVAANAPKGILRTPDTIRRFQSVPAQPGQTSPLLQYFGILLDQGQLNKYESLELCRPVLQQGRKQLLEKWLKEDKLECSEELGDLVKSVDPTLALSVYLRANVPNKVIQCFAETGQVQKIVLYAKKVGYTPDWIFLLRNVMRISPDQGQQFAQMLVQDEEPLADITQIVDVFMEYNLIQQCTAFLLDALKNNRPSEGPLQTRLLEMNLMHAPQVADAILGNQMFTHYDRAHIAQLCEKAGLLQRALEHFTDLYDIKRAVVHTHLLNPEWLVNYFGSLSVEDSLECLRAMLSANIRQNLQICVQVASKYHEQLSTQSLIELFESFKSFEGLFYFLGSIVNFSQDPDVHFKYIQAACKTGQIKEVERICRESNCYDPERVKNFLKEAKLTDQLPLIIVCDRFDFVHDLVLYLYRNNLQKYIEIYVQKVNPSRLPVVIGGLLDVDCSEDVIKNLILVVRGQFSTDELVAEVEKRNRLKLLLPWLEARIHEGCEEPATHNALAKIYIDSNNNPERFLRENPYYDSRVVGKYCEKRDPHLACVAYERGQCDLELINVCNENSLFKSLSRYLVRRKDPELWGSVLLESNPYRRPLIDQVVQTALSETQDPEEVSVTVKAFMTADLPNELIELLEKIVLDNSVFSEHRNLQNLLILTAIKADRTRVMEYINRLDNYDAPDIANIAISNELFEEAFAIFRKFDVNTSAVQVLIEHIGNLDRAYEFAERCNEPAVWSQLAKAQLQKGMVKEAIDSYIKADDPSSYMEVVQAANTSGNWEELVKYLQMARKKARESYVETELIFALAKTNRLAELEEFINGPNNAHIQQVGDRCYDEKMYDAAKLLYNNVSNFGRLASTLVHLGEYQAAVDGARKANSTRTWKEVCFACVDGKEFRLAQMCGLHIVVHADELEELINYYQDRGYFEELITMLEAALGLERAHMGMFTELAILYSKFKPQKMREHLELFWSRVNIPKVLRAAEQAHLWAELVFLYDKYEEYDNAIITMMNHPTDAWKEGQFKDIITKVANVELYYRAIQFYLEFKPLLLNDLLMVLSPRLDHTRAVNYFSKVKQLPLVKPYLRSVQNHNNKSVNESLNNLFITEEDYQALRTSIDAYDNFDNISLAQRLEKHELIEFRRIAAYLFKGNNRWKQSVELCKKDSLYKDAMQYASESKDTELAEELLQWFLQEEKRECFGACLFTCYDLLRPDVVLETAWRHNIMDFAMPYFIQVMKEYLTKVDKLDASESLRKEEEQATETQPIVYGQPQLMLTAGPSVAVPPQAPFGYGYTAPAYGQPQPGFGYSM
Chain of clathrin purified from bovine brain, P49951 (chain, as listed by the source, chain 2 of 3): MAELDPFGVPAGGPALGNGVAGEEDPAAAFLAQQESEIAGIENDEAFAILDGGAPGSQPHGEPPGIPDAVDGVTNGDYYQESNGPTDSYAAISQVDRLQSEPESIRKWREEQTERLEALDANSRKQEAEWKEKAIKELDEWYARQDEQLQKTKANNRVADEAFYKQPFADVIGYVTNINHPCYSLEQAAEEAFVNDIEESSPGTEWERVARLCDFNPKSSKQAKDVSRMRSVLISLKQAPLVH
Chain of clathrin purified from bovine brain, P49951 (chain, as listed by the source, chain 3 of 3): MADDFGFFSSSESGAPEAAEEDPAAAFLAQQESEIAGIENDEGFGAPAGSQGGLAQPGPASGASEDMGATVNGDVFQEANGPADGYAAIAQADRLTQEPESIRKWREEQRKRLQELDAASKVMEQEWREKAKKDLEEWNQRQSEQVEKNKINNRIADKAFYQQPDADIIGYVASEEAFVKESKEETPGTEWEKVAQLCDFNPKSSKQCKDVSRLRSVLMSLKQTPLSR

Row | Binder | ratio to parent | other: relative clathrin binding (intensity divided by that of 15mer E)
1 | LASSLANLVGNLGIG [CALM iso3 490-…-504 D491A] | 1 | –
2 | PAKAPAAAANAKAAA [AP180 Site 2 peptide 882-…-896 D885A; L887A; D889A; L890A; I892A; D894A; F895A; L896A] | 0 | –
3 | PAKDPAADANAKDAA [AP180 Site 2 peptide 882-…-896 L887A; L890A; I892A; F895A; L896A] | 0 | –
4 | PAKAPLAALNIKAFL [AP180 Site 2 peptide 882-…-896 D885A; D889A; D894A] | 0.12 | –
5 | SDDADSSAANAVGNA [CALM iso3 487-…-501 L490A; L494A; L497A; L501A] | – | 0
6 | SAALASSLANLVGNL [CALM iso3 487-…-501 D488A; D489A; D491A] | – | 0.35
7 | SAAAASSAANAVGNA [CALM iso3 487-…-501 D488A; D489A; L490A; D491A; L494A; L497A; L501A] | – | 0

Results, then the binder that gave them:

Row | ratio to parent | other: relative clathrin binding (intensity divided by that of 15mer E) | Binder
8 | 0 | – | AASSAANAVGNAGAG [CALM iso3 490-…-504 L490A; D491A; L494A; L497A; L501A; I503A]
9 | 0 | – | PNPFGPVSGAQAQAA [CALM iso3 C-terminus peptide 596-…-610 I607A; F609A; M610A]
10 | 0 | – | ADSSAANAVGNAGAG [CALM iso3 490-…-504 L490A; L494A; L497A; L501A; I503A]

— PMC5004861
